Results: patent US20180273587A1 (AILERON THERAPEUTICS, published 2018)
Positions of bridges follow the written chain, without caps; N, C: chain ends. Non-standard residues stand in square brackets, D forms with d. R8 = C=CCCCCCC[C@@](C)(N)C(=O)O; S5 = C=CCCC[C@](C)(N)C(=O)O

Columns and labels:
Assay in all cases: Ki table, method not stated
MCL-1 = molecular target: T1, MCL-1 (UniProt Q07820 172-327, limits assumed)
T1 construct: also called Myeloid cell leukemia 1

BCL-XL = BCL-XL (UniProt Q07817 1-209)
BCL-2 = BCL-2 (UniProt P10415 1-217, limits assumed)
Chain of BCL-2 (P10415 1-217 limits assumed): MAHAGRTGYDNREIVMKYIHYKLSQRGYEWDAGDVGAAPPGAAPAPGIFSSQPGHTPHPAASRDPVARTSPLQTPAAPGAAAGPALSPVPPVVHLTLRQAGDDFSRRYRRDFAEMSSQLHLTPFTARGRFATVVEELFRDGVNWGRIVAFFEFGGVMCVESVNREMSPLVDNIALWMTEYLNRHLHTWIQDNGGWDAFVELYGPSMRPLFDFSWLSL

Chain of BCL-XL (Q07817 1-209): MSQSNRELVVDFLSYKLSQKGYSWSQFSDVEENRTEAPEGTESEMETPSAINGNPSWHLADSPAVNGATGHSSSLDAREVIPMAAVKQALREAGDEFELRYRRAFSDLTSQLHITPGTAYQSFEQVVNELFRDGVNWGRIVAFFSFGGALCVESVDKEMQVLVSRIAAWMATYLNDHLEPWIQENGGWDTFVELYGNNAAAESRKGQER
T1 sequence (Q07820 172-327 limits assumed): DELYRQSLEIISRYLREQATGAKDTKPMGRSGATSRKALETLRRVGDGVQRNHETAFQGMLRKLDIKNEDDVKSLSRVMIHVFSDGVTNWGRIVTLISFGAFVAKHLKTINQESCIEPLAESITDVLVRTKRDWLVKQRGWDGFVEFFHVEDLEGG

Binder | Ki (MCL-1) | Ki (BCL-XL) | Ki (BCL-2)
Ac-IWIAQALQ[R8]IGDAFN[S5]YYA-NH2 (staple 9-16; SMILES CC[C@H](C)[C@H](NC(C)=O)C(=O)N[C@@H](Cc1c[nH]c2ccccc12)C(=O)N[C@H](C(=O)N[C@@H](C)C(=O)N[C@@H](CCC(N)=O)C(=O)N[C@@H](C)C(=O)N[C@@H](CC(C)C)C(=O)N[C@@H](CCC(N)=O)C(=O)N[C@]1(C)CCCCCCC=CCCC[C@@](C)(C(=O)N[C@@H](Cc2ccc(O)cc2)C(=O)N[C@@H](Cc2ccc(O)cc2)C(=O)N[C@@H](C)C(N)=O)NC(=O)[C@H](CC(N)=O)NC(=O)[C@H](Cc2ccccc2)NC(=O)[C@H](C)NC(=O)[C@H](CC(=O)O)NC(=O)CNC(=O)[C@H]([C@@H](C)CC)NC1=O)[C@@H](C)CC) [SEQ ID NO: 1659] | 76.2 nM | 325 nM | 365 nM
Ac-IWIAQALR[R8]IGDAIN[S5]YYA-NH2 (staple 9-16; SMILES CC[C@H](C)[C@H](NC(C)=O)C(=O)N[C@@H](Cc1c[nH]c2ccccc12)C(=O)N[C@H](C(=O)N[C@@H](C)C(=O)N[C@@H](CCC(N)=O)C(=O)N[C@@H](C)C(=O)N[C@@H](CC(C)C)C(=O)N[C@@H](CCCNC(=N)N)C(=O)N[C@]1(C)CCCCCCC=CCCC[C@@](C)(C(=O)N[C@@H](Cc2ccc(O)cc2)C(=O)N[C@@H](Cc2ccc(O)cc2)C(=O)N[C@@H](C)C(N)=O)NC(=O)[C@H](CC(N)=O)NC(=O)[C@H]([C@@H](C)CC)NC(=O)[C@H](C)NC(=O)[C@H](CC(=O)O)NC(=O)CNC(=O)[C@H]([C@@H](C)CC)NC1=O)[C@@H](C)CC) [SEQ ID NO: 1662] | 3.4 nM | 14.1 nM | 113 nM
Ac-IWIAQALQ[R8]IGDQFN[S5]YYA-NH2 (staple 9-16; SMILES CC[C@H](C)[C@H](NC(C)=O)C(=O)N[C@@H](Cc1c[nH]c2ccccc12)C(=O)N[C@H](C(=O)N[C@@H](C)C(=O)N[C@@H](CCC(N)=O)C(=O)N[C@@H](C)C(=O)N[C@@H](CC(C)C)C(=O)N[C@@H](CCC(N)=O)C(=O)N[C@]1(C)CCCCCCC=CCCC[C@@](C)(C(=O)N[C@@H](Cc2ccc(O)cc2)C(=O)N[C@@H](Cc2ccc(O)cc2)C(=O)N[C@@H](C)C(N)=O)NC(=O)[C@H](CC(N)=O)NC(=O)[C@H](Cc2ccccc2)NC(=O)[C@H](CCC(N)=O)NC(=O)[C@H](CC(=O)O)NC(=O)CNC(=O)[C@H]([C@@H](C)CC)NC1=O)[C@@H](C)CC) [SEQ ID NO: 1660] | 14.8 nM | 6.3 nM | 27.5 nM
Ac-IWIAQAAR[R8]IGDAAN[S5]YYA-NH2 (staple 9-16; SMILES CC[C@H](C)[C@H](NC(C)=O)C(=O)N[C@@H](Cc1c[nH]c2ccccc12)C(=O)N[C@H](C(=O)N[C@@H](C)C(=O)N[C@@H](CCC(N)=O)C(=O)N[C@@H](C)C(=O)N[C@@H](C)C(=O)N[C@@H](CCCNC(=N)N)C(=O)N[C@]1(C)CCCCCCC=CCCC[C@@](C)(C(=O)N[C@@H](Cc2ccc(O)cc2)C(=O)N[C@@H](Cc2ccc(O)cc2)C(=O)N[C@@H](C)C(N)=O)NC(=O)[C@H](CC(N)=O)NC(=O)[C@H](C)NC(=O)[C@H](C)NC(=O)[C@H](CC(=O)O)NC(=O)CNC(=O)[C@H]([C@@H](C)CC)NC1=O)[C@@H](C)CC) [SEQ ID NO: 1664] | 177 nM | 154 nM | 502 nM
Ac-IWIAQALR[R8]IGDAAN[S5]YYA-NH2 (staple 9-16; SMILES CC[C@H](C)[C@H](NC(C)=O)C(=O)N[C@@H](Cc1c[nH]c2ccccc12)C(=O)N[C@H](C(=O)N[C@@H](C)C(=O)N[C@@H](CCC(N)=O)C(=O)N[C@@H](C)C(=O)N[C@@H](CC(C)C)C(=O)N[C@@H](CCCNC(=N)N)C(=O)N[C@]1(C)CCCCCCC=CCCC[C@@](C)(C(=O)N[C@@H](Cc2ccc(O)cc2)C(=O)N[C@@H](Cc2ccc(O)cc2)C(=O)N[C@@H](C)C(N)=O)NC(=O)[C@H](CC(N)=O)NC(=O)[C@H](C)NC(=O)[C@H](C)NC(=O)[C@H](CC(=O)O)NC(=O)CNC(=O)[C@H]([C@@H](C)CC)NC1=O)[C@@H](C)CC) [SEQ ID NO: 1661] | 7.5 nM | 402 nM | 140 nM

Next, values leading:

Ki (MCL-1) | Ki (BCL-XL) | Ki (BCL-2) | Binder
116 nM | 7.7 nM | 25.6 nM | Ac-IWIAQALR[R8]IADQFN[S5]YYA-NH2 (staple 9-16; SMILES CC[C@H](C)[C@H](NC(C)=O)C(=O)N[C@@H](Cc1c[nH]c2ccccc12)C(=O)N[C@H](C(=O)N[C@@H](C)C(=O)N[C@@H](CCC(N)=O)C(=O)N[C@@H](C)C(=O)N[C@@H](CC(C)C)C(=O)N[C@@H](CCCNC(=N)N)C(=O)N[C@]1(C)CCCCCCC=CCCC[C@@](C)(C(=O)N[C@@H](Cc2ccc(O)cc2)C(=O)N[C@@H](Cc2ccc(O)cc2)C(=O)N[C@@H](C)C(N)=O)NC(=O)[C@H](CC(N)=O)NC(=O)[C@H](Cc2ccccc2)NC(=O)[C@H](CCC(N)=O)NC(=O)[C@H](CC(=O)O)NC(=O)[C@H](C)NC(=O)[C@H]([C@@H](C)CC)NC1=O)[C@@H](C)CC) [SEQ ID NO: 1666]
183 nM | 18.1 nM | 59.6 nM | Ac-IWIAQALR[R8]AGDAFN[S5]YYA-NH2 (staple 9-16; SMILES CC[C@H](C)[C@H](NC(C)=O)C(=O)N[C@@H](Cc1c[nH]c2ccccc12)C(=O)N[C@H](C(=O)N[C@@H](C)C(=O)N[C@@H](CCC(N)=O)C(=O)N[C@@H](C)C(=O)N[C@@H](CC(C)C)C(=O)N[C@@H](CCCNC(=N)N)C(=O)N[C@]1(C)CCCCCCC=CCCC[C@@](C)(C(=O)N[C@@H](Cc2ccc(O)cc2)C(=O)N[C@@H](Cc2ccc(O)cc2)C(=O)N[C@@H](C)C(N)=O)NC(=O)[C@H](CC(N)=O)NC(=O)[C@H](Cc2ccccc2)NC(=O)[C@H](C)NC(=O)[C@H](CC(=O)O)NC(=O)CNC(=O)[C@H](C)NC1=O)[C@@H](C)CC) [SEQ ID NO: 1667]
96.3 nM | 7.7 nM | 84 nM | Ac-IWIAQALR[R8]IADAFN[S5]YYA-NH2 (staple 9-16; SMILES CC[C@H](C)[C@H](NC(C)=O)C(=O)N[C@@H](Cc1c[nH]c2ccccc12)C(=O)N[C@H](C(=O)N[C@@H](C)C(=O)N[C@@H](CCC(N)=O)C(=O)N[C@@H](C)C(=O)N[C@@H](CC(C)C)C(=O)N[C@@H](CCCNC(=N)N)C(=O)N[C@]1(C)CCCCCCC=CCCC[C@@](C)(C(=O)N[C@@H](Cc2ccc(O)cc2)C(=O)N[C@@H](Cc2ccc(O)cc2)C(=O)N[C@@H](C)C(N)=O)NC(=O)[C@H](CC(N)=O)NC(=O)[C@H](Cc2ccccc2)NC(=O)[C@H](C)NC(=O)[C@H](CC(=O)O)NC(=O)[C@H](C)NC(=O)[C@H]([C@@H](C)CC)NC1=O)[C@@H](C)CC) [SEQ ID NO: 1665]
